Tests used:
SARS-CoV-2 WT S-ECD蛋白 = SARS-CoV-2 WT S-ECD蛋白 (SARS-CoV-2, UniProt P0DTC2 14-1213)
SARS-CoV-2 Delta株S-ECD蛋白 = SARS-CoV-2 Delta株S-ECD蛋白 (SARS-CoV-2 Delta株 (B.1.617.2))
SARS-CoV-2 Beta株S-ECD蛋白 = SARS-CoV-2 Beta株S-ECD蛋白 (SARS-CoV-2 Beta株 (B.1.351))
SARS-CoV-2 Alpha株S-ECD蛋白 = SARS-CoV-2 Alpha株S-ECD蛋白 (SARS-CoV-2 Alpha株 (B.1.1.7))
SARS-CoV-2 Gamma株S-ECD蛋白 = SARS-CoV-2 Gamma株S-ECD蛋白 (SARS-CoV-2 Gamma株 (P.1))
SARS-CoV-2 Delta株病毒的S蛋白 = SARS-CoV-2 Delta株病毒的S蛋白 (SARS-CoV-2 Delta株 (B.1.617.2)); assay: cell-based or functional assay
SARS-CoV-2 Gamma株病毒的S蛋白 = SARS-CoV-2 Gamma株病毒的S蛋白 (SARS-CoV-2 Gamma株 (P.1)); assay: cell-based or functional assay
SARS-CoV-2 Beta株病毒的S蛋白 = SARS-CoV-2 Beta株病毒的S蛋白 (SARS-CoV-2 Beta株 (B.1.351)); assay: cell-based or functional assay
SARS-CoV-2 Alpha株病毒的S蛋白 = SARS-CoV-2 Alpha株病毒的S蛋白 (SARS-CoV-2 Alpha株 (B.1.1.7)); assay: cell-based or functional assay

B1: 全人源抗SARS-CoV-2单克隆抗体ZWD12 (antibody, V domains shown)
VH: EVQLVESGGGLVQPGGTLRLSCVASGFSFSNYWMSWVRQAPGKGLEWVANIKQDGSETHYVDSVKGRFTISRDNAKNSLYLQMNSLRADDTAVYFCVKDRTDWELIRGYFGHWGQGTQITVSS
VL: DIVMTQTPSSLSLSPGDRATLSCRASENIINYLAWYQQRPGQSPRLLIYDASNRATGIPARFSGSGSGTDFTLTISSLEPEDFAVYYCQQRIIWPPYTFGQGTKVDIKR
Kd (SARS-CoV-2 WT S-ECD蛋白): 0.895 nM
koff (SARS-CoV-2 WT S-ECD蛋白): 0.000121 s⁻¹
kon (SARS-CoV-2 WT S-ECD蛋白): 135000 M⁻¹ s⁻¹
Kd (SARS-CoV-2 Delta株S-ECD蛋白): 1.91 nM
koff (SARS-CoV-2 Delta株S-ECD蛋白): 0.000133 s⁻¹
kon (SARS-CoV-2 Delta株S-ECD蛋白): 69600 M⁻¹ s⁻¹
Kd (SARS-CoV-2 Beta株S-ECD蛋白): 0.991 nM
koff (SARS-CoV-2 Beta株S-ECD蛋白): 0.000102 s⁻¹
kon (SARS-CoV-2 Beta株S-ECD蛋白): 103000 M⁻¹ s⁻¹
Kd (SARS-CoV-2 Alpha株S-ECD蛋白): 0.826 nM
koff (SARS-CoV-2 Alpha株S-ECD蛋白): 0.000111 s⁻¹
kon (SARS-CoV-2 Alpha株S-ECD蛋白): 134000 M⁻¹ s⁻¹
Kd (SARS-CoV-2 Gamma株S-ECD蛋白): 1.42 nM
koff (SARS-CoV-2 Gamma株S-ECD蛋白): 0.000146 s⁻¹
kon (SARS-CoV-2 Gamma株S-ECD蛋白): 102000 M⁻¹ s⁻¹
假病毒中和 EC50 (luciferase, HEK293T cells) (SARS-CoV-2 Delta株病毒的S蛋白): 7.29 ng/mL
真病毒中和 EC50 (Vero E6 cells, crystal violet) (SARS-CoV-2 Delta株病毒的S蛋白): 79 ng/mL
假病毒中和 EC50 (luciferase, HEK293T cells) (SARS-CoV-2 Gamma株病毒的S蛋白): 3.83 ng/mL
假病毒中和 EC50 (luciferase, HEK293T cells) (SARS-CoV-2 Beta株病毒的S蛋白): 3.56 ng/mL
真病毒中和 EC50 (Vero E6 cells, crystal violet) (SARS-CoV-2 Beta株病毒的S蛋白): 69 ng/mL
假病毒中和 EC50 (luciferase, HEK293T cells) (SARS-CoV-2 Alpha株病毒的S蛋白): 4.11 ng/mL
